Source: patent US9057734B2, “Optogenetic probes for measuring membrane potential” (President and Fellows of Harvard College, priority 2010, dated 2015)

Legend:
[1] = Relative photostability of Arch 3 and eGFP in Arch 3-eGFP fusion; format: physicochemical
Description: To perform a direct comparison of photostability of Arch 3 and eGFP we studied the photobleaching of the Arch 3-eGFP fusion. This strategy guaranteed a 1:1 stoichiometry of the two fluorophores, simplifying the analysis. The experiments were performed on permeabilized cells, in the microscope, with video recording as the cells photobleached. We first recorded a movie of photobleaching of Arch 3 under 640 nm illumination; then on the same field of view we recorded photobleaching of eGFP under 488 nm illumination, with illumination intensity adjusted to yield approximately the same initial count rate as for Arch 3. Fluorescence background levels were obtained from nearby protein-free regions of each movie and were subtracted from the intensity of the protein-containing regions. The area under each photobleaching timetrace was calculated, yielding an estimate of the total number of detected photons from each fluorophore. The eGFP emission (λmax=509 nm) and the Arch emission (λmax=687 nm) were collected through different emission filters, so the raw counts were corrected for the transmission spectra of the filters and the wavelength-dependent quantum yield of the EMCCD camera. The result was that the relative number of photons emitted prior to photobleaching for eGFP:Arch 3 WT was 3.9:1, and for eGFP:Arch D95N this ratio was 10:1.

neurons = assay: Light-induced photocurrent and perturbation of membrane potential in neurons; format: cell-based, rat; settings: I=1800 W/cm2, TIR mode
Text: Under illumination conditions typically used for imaging neural activity (I=1800 W/cm2 in total internal reflection (TIR) mode), the light-induced outward photocurrent was typically 10 pA in neurons expressing Arch 3 WT. Under current-clamp conditions this photocurrent shifted the resting potential of the neurons by up to −20 mV. For neurons near their activation threshold, this photocurrent could suppress firing (FIG. 9A), so we explored the non-pumping variant D95N as a voltage indicator in neurons.
Whole-cell current clamp recordings were obtained from mature neurons under the same conditions used for HEK cells recordings. Series resistance and pipette capacitance were corrected. Only neurons having resting potentials between −50 and −70 mV were used in the analysis.

B1: Arch 3 WT: Archaerhodopsin 3, light-driven proton pump from Halorubrum sodomense, used as fluorescent voltage indicator (protein)
chain: MDPIALQAGYDLLGDGRPETLWLGIGTLLMLIGTFYFLVRGWGVTDKDAREYYAVTILVPGIASAAYLSMFFGIGLTEVTVGGEMLDIYYARYADWLFTTPLLLLDLALLAKVDRVTIGTLVGVDALMIVTGLIGALSHTAIARYSWWLFSTICMIVVLYFLATSLRSAAKERGPEVASTFNTLTALVLVLWTAYPILWIIGTEGAGVVGLGIETLLFMVLDVTAKVGFGFILLRSRAILGDTEAPEPSAGADVSAAD
modifications: Halorubrum sodomense
notes: Archaerhodopsin 3, light-driven proton pump from Halorubrum sodomense, used as fluorescent voltage indicator
- photons prior to photobleaching relative to eGFP [1]: approximately 25%
- light-induced outward photocurrent (neurons): ~10 pA
